One molecule from patent US20250027090, “MIRROR-IMAGE SELECTION OF L-NUCLEIC ACID APTAMERS” (Tsinghua University, published 2025) can be followed below.

The target of this series is thrombin (native human beta-thrombin) (Homo sapiens, UniProt P00734;P00734 P00734:328-363,P00734:364-622). The experiment in a line: ITC; physiological buffer pH 7.4, 25 C. Background: In ITC the heat of successive injections is recorded.

In general, Kd refers to a measure of binding affinity in units of concentration. Read a high Kd as a looser complex.

B1: D-6 aptamer (ssDNA)
DNA: CGGATCCAGTTACGGACTGAACAGAAGGGTGGTGTGGTTGGACTGTTCATTCAGTAAGCTTCGG
As for B1, the Kd was 27 nM.
